Reference: article PMC12874534

Biological target: Bcl-XL-126Bpa (UniProt Q07817)
Assay: BLI

Sequence of UniProt Q07817 (Q07817 whole entry): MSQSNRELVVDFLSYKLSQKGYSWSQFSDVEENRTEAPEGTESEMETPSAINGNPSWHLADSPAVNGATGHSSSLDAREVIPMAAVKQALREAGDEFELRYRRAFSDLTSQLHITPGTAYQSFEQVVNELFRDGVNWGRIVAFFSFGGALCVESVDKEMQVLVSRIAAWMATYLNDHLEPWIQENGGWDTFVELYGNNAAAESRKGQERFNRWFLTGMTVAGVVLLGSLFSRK

With “Bid-83Bpa (from UniProt P55957 1-195) (natural protein)” the Kd was 1770 nM.
